Laboratory results published in patent US20070020327A1.
Blank lines part the entries; values can stand above or below the binder they belong to.

Experiments:
[1] = biological target: HLA-A*0301 (human); experiment: competition with radiolabeled standard peptide on purified HLA-A*0301, gel filtration; conditions: scale: ratio
[2] = biological target: HLA-A*0301 (human); experiment: competition with 125I-labeled standard peptide for purified HLA-A*0301, gel filtration
[3] = biological target: HLA-A*0201 (human); experiment: inhibition of 125I-labelled probe peptide binding to purified HLA, gel filtration; conditions: remark: other sources report otherwise
[4] = biological target: HLA-A*0202 (human); experiment: as above; conditions: remark: other sources report otherwise
[5] = biological target: HLA-A*0206 (human); experiment: as above; conditions: remark: other sources report otherwise
[6] = biological target: HLA-A*6802 (human); experiment: as above; conditions: remark: other sources report otherwise
[7] = biological target: HLA-A*1101 (human); experiment: competition with a 125I-labelled standard peptide for purified HLA-A*1101, gel filtration; conditions: scale: ratio
[8] = biological target: HLA-A*0201 (human); experiment: competitive inhibition of 125I-labelled standard peptide binding to purified HLA, gel filtration
[9] = biological target: HLA-A*0202 (human); experiment: as above
[10] = biological target: HLA-A*0203 (human); experiment: as above
[11] = biological target: HLA-A*0206 (human); experiment: as above
[12] = biological target: HLA-A*0201 (human); experiment: inhibition of 125I-labelled probe peptide binding to purified HLA; gel filtration; conditions: remark: other sources report otherwise
[13] = biological target: HLA-A*6802 (human); experiment: as above; conditions: remark: other sources report otherwise
[14] = biological target: HLA-A*0203 (human); experiment: inhibition of 125I-labelled probe peptide binding to purified HLA, gel filtration; conditions: remark: other sources report otherwise
[15] = biological target: HLA-A*0301 (human); experiment: competition with 125I-labelled standard peptide on purified HLA-A*0301, gel filtration
[16] = biological target: HLA-A*0201 (human); experiment: competitive inhibition of 125I-labelled standard peptide binding to purified HLA, gel filtration; ratio = IC50 standard / IC50 test peptide; conditions: remark: other sources report otherwise
[17] = biological target: HLA-A*0203 (human); experiment: as above; conditions: remark: other sources report otherwise
[18] = biological target: HLA-A*1101 (human); experiment: competition with 125I-labelled standard peptide for purified HLA-A*1101, gel filtration; conditions: remark: other sources report otherwise
[19] = biological target: HLA-A*0301 (human); experiment: competition with 125I-labelled standard peptide for purified HLA-A*0301, gel filtration; ratio to the A*0301 standard peptide 941.12 [..] (11 nM)
[20] = biological target: HLA-A*0202 (human); experiment: inhibition of 125I-labelled probe peptide binding to purified HLA; gel filtration; conditions: remark: other sources report otherwise
[21] = biological target: HLA-A*0206 (human); experiment: as above; conditions: remark: other sources report otherwise

Binder: VLTAAHCIR (modifications not checked) [PSA 56 peptide …]
- binding affinity ratio [1]: 0.0002

Binder: WATEDTMTK (modifications not checked) [PAP 226 peptide …]
- binding affinity ratio [1]: 0.0006

Binder: SLQCVSLHLL (modifications not checked) [Peptide 1419.66 (HuK2.170) …]
- IC50 [3]: 263 nM
- IC50 [4]: 4.9 nM
- IC50 [5]: 446 nM
- IC50 [6]: 5000 nM

Binder: DVLLSYPNK (modifications not checked) [PSM 114 peptide …]
- binding affinity ratio [7]: 0.001

Binder: SLQCVSLHL (modifications not checked) [Peptide 60.0191 (HuK2.170) …]
- IC50 [3]: 500 nM
- IC50 [4]: 51 nM
- IC50 [14]: 417 nM
- IC50 [6]: 2580 nM

Binder: SLHLLSNDMCV (modifications not checked) [Peptide 1418.66 (HuK2.175.V11) …]
- IC50 [3]: 8.6 nM
- IC50 [4]: 0.8 nM
- IC50 [14]: 10 nM
- IC50 [5]: 2310 nM
- IC50 [6]: 2160 nM

Binder: ITDVVKVL (modifications not checked) [ITDVVKVL (Kallikrein, position 132)]
- binding affinity ratio (ratio to standard peptide) [8]: 0.0001
- binding affinity ratio (ratio to standard peptide) [9]: 0.001
- binding affinity ratio (ratio to standard peptide) [10]: 0.0001
- binding affinity ratio (ratio to standard peptide) [11]: -0.0001

Binder: LVFRHGDR (modifications not checked) [LVFRHGDR (PAP, position 40, 8 amino acids)]
- binding affinity ratio (IC50 of standard peptide / IC50 of test peptide) [2]: 0.0003

Binder: VLSIALSV (modifications not checked) [VLSIALSV (Kallikrein, position 5)]
- binding affinity ratio [16]: 0.005
- binding affinity ratio [17]: 0.02

Binder: TAAHCIRNK (modifications not checked) [PSA 58 …]
- binding affinity ratio (IC50 of standard peptide / IC50 of test peptide) [18]: 0.014

Binder: VTKFMLCAGR (modifications not checked) [PSA 188 peptide …]
- binding affinity ratio ([1]; remark: other sources report otherwise): 0.0003

Binder: DMSLLKNR (modifications not checked) [PSA 98 peptide DMSLLKNR]
- binding affinity ratio (IC50 of standard peptide / IC50 of test peptide) [19]: 0.0003
- binding affinity ratio [7]: 0.0001

Binder: VLPFDCRDYA (modifications not checked) [PSM 592 peptide …]
- binding affinity ratio [1]: 0.0005

Next, values leading:

- binding affinity ratio (IC50 of standard peptide / IC50 of test peptide) [2]: 0.0006
Binder: NLLHETDSA (modifications not checked) [… (PSM, position 3, 9 amino acids)]

- binding affinity ratio (ratio to standard peptide) [8]: 0.0003
- binding affinity ratio (ratio to standard peptide) [9]: 0.0036
- binding affinity ratio (ratio to standard peptide) [10]: 0.003
- binding affinity ratio (ratio to standard peptide) [11]: 0.0001
Binder: ITSWGSEPCA (modifications not checked) [… (PSA, position 222)]

- IC50 [12]: 263 nM
- IC50 [13]: 1820 nM
Binder: KLRELSELSV (modifications not checked) [peptide 63.0048 (PAP.234.V10)]

- binding affinity ratio (IC50 of standard peptide / IC50 of test peptide) [15]: 0.0003
Binder: LSLLSLYGIH (modifications not checked) [… (PAP, position 241)]

- binding affinity ratio (IC50 of standard peptide / IC50 of test peptide) [2]: 0.0005
Binder: NFTEIASKF (modifications not checked) [… (PSM, position 638, 9 amino acids)]

- IC50 [12]: 238 nM
- IC50 [20]: 47 nM
- IC50 [21]: 336 nM
Binder: PLLLWQPIPV (modifications not checked) [peptide 63.0042 (PAP.134.L2)]
